The text below walks through data of patent US20250320282A1 (MABYLON, published 2025).

Assay [1] addresses T1, Ara h 2 (Arachis hypogaea allergen 2) (Arachis hypogaea, UniProt Q6PSU2 22-172).
T1 construct: Peanut allergen; also called nAra h 2; natural Ara h 2
T1 sequence: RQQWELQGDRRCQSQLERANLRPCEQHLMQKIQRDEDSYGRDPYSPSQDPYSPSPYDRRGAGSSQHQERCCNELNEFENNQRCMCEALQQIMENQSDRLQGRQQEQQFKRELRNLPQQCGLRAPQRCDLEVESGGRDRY
The assay can be described thus: ELISA, antibody titrated on coated Ara h 2. The protocol: (§1) Monoclonal antibodies 2F8, 7G6, 17H9 and 15E3 were tested for their specificity against the major peanut allergens Ara h 1, 2, 3, and 6 by ELISA (enzyme linked immunosorbent assay). Briefly, ELISA plates were coated with respective Ara h proteins (Arah1: 0.5 ug/ml, Arah2: 0.01 ug/ml, Arah3: 0.1 ug/ml, Arah6: 0.05 ug/ml) overnight at 4° C. Afterwards, plates were blocked with BSA (2% in PBS) for 1 hour at room temperature. Antibody titration series starting from 3 ug/ml was prepared, added to the single ELISA plate wells and incubated for 2 h at room temperature. The read-out was performed by adding anti-hu-IgG-HRP (anti-human-IgG horseradish peroxidase; Jackson ImmunoResearch, West Grove, PA, USA) for 1 h at room temperature. Tetramethylbenzidine substrate solution (TMB, Sigma-Aldrich Chemie GmbH, Buchs, Switzerland) was added, then after 5 minutes of hydrolysis time, the reaction was stopped by the addition of 1 M H₂SO₄ and the absorbances were read at 450 nm.
A general note: An ELISA detects its analyte on a solid surface through an enzyme-linked reagent.

The target in assay [2] is T2, Ara h 6 (Arachis hypogaea allergen 6) (Arachis hypogaea, UniProt Q647G9 22-145).
T2 construct: Peanut allergen; also called Ara h 6.0101; nAra h 6
T2 sequence: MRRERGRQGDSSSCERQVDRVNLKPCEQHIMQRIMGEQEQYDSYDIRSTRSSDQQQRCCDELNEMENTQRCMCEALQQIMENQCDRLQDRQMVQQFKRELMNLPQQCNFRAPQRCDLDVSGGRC
The assay can be described thus: ELISA, antibody titrated on coated Ara h 6. The protocol:
as §1

For assay [3], the target named is T3, Ara h 3 (Arachis hypogaea allergen 3) (Arachis hypogaea).
T3 construct: Peanut allergen; also called Ara h 3.0101; nAra h 3
T3 chain: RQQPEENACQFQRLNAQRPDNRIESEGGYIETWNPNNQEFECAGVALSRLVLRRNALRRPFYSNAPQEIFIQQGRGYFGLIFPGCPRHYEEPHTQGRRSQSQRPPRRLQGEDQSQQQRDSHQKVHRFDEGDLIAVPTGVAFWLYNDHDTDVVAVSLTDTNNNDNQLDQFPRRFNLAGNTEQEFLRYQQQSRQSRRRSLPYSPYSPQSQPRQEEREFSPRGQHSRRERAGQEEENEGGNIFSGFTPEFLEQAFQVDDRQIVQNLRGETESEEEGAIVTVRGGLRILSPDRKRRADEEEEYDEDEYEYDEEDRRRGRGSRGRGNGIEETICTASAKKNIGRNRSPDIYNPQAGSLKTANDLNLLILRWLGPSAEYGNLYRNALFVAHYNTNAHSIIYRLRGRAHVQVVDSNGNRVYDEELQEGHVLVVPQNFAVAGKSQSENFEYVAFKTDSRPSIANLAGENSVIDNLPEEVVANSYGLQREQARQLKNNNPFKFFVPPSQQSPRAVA
The assay can be described thus: ELISA, antibody titrated on coated Ara h 3. Here is the method:
as §1

B1: 7G6 (antibody, V domains shown)
VH: QVQLVESGGGVVQPGRSLRLSCAASGIAFNDYTMHWVRRSPDKGLEWVAAISYGGTNKYYADSVKGRFTISRDSSKNTLFLQMDSLRVEDTAVYYCARDSGYRSLLHWGQGTLVTVSS
VL: EIVLTQSPLSLPVTPGEPASISCRSSQSLVHRNGYNYLDWYLQKPGQSPQLLIYMASKRASGVPDRFSGSGSGTEFTLKISRVEAEDVGIYYCMQALQTWTFGQGTKVEVN
notes: Fully human monoclonal antibody, wild-type variable regions; tested as IgG; also called MY006-7G6
Turning to B1, the concentration giving a half-maximal response (EC50) (as a rule, the concentration that produces a half-maximal response) in assay [1] stood at 0.629 ng/mL; in assay [2] it was 1 ng/mL.

B2: 2F8 (antibody, V domains shown)
VH: EVQLVESGGGLVKPGGSLRLSCAASGFIFSDYNMNWVRQAPGKGLEWVSSITRSSRTIYYADSVKGRFTISRDNAKNSLHLQMNSLRDADTAVYYCAREDFDVSTGPYYMDVWGNGTTVIVSS
VL: EIVLTQSPGTLSLSPGERATLSCRASQSVSNMFLVWYQQKPGQAPRLLMYGASTRATDIPDRFSGSGSGTDFTLTISRLEPEDFAVYYCQQNGNSPYTFGQGTKLEIK
notes: Fully human monoclonal antibody, wild-type variable regions; tested as IgG; also called MY006-2F8
B2: the EC50 in assay [1] is 3.31 ng/mL; in assay [2], 2.46 ng/mL.

B3: 15E3 (antibody, V domains shown)
VH: EVQLVESGGALVQPGGSLRLSCAASGFKFSTFYMTWIRQAPGKGLEWVANIKQDGSEKDYLDSVRGRFNISRDNAKSVLYLQMNTLSADDTGVYYCTRNGLQDSYSGDFFDHWGQGILVTVSS
VL: QSVLTQPPSISAAPGQKVTISCSGTGSNIGHNYVSWYQQLPRTAPRLLIFDNTKRPSGIPDRFSGSKSGSSATLGITGLQTGDEAHYFCATWDADLSAVLFGGGTKLTVL
notes: Fully human monoclonal antibody, wild-type variable regions; also called MY006-15E3; 15E3-human IgG1
Regarding B3, the EC50 in assay [1] stood at 3.78 ng/mL; in assay [2], 1.74 ng/mL.

B4: 17H9 (antibody, V domains shown)
VH: QVQLEEYGGGVVQPGRSLRLSCVASGSTLGTYGMHWVRQAPGKGLEWVAIISPDGGHQDYADPVRGRFTVSRDNSKNTLYLQMDNLRVEDTAVYYCATTLCARTDCTWVRSDSWGQGTLVTVSS
VL: ANVLTQSPGTLSLSPGERATLSCRASQRVSGDYLAWYQQKRGQAPRLLIYGASSRATGIPDRFSGSGSGTDFTLTISRLEPEDFAVYYCQHYNGPPVTFGQGTKLEIK
notes: Fully human monoclonal antibody, wild-type variable regions; tested as IgG (detected with anti-human IgG); also called MY006-17H9
For the molecule B4, the EC50 in assay [1] amounted to 2.2 ng/mL; in assay [3], 7.38 ng/mL.
